A short description of this data set: soluble on expression in E. coli; label from the status in PepcDB or PDB records.
With “MTEQSAHEKYEFKKKLEGLRDKKGRSTELISLYIPPDKQIFDVTNQLKDEHGQAANIKSKLTRTNVQGAIESLLSRLRYLDKVPENGIVYFTGAVDIGANKTSMESEVIVPPDPITVYKYHCDSSFYLEPLEDMLKDKNTYGLLVLDRREATIGLLVGKRIQPFRNLTSTVPGKQRKGGQSAHRFQQLRLIAIHDFYKRIGDAASEVFMAVDHKDLKGVLIGGPSPTKEEFHAGEFLHHELMKKILGLFDTAYTDESGLSELVNAAGEKLQDLELMGQKNAVRDFFKELIADSGKVAYGESQVRANLEINSVDVLLLSEDLRAERVTTKCSVCGYENKWTRRWKPGEPAPAAGNCPKCGSSLEVTDVTDIVDEFSELADKSNAKVVFVSTDFDEGSQLMNAFGGIAAILRYNTGV”, the “soluble on expression in E. coli” value was “not soluble”. “MTESFAELFEASQANLAKLKPGSIVTGTVVEVRGDVVVINAGLKSEGIVPIEQFRNDAGEIDVGVGDQVKVALDSIENGFGETVLSREKAKRAMVWDELEEALEKNETITGRISGKVKGGFTVDIKDVRAFLPGSLVDVRPVRDPAYLEGKELEFKLIKLDRKRNNVVVSRRAVVESEHSEEREQLMDKLQEGAILKGVVKNLTDYGAFVDLGGIDGLLHITDMAWKRVRHPSEVVNVGDELDVRVLKFDRERNRVSLGLKQLGEDPWDNIARRYPANSRVFGKVSNVTDYGAFVEIEPGVEGLVHVSEMDWTNKNVNPSKVVQVGDEVEVMVLDVDEERRRISLGMKQVAANPWETFAATHKKNDKVSGQIKSITDFGIFIGLDGGIDGLVHLSDISWNTTGEDVVRNYKKGDTLEAVVLAVDPERERISLGVKQLEQDPFGQYMASNPKGSKVEGVVREVDAKGATIDLADGIEGYVAARDIANERVDDATQHLKVGDKIEAKFVGMDRKGRTLQLSIKAKDDAEMREVLEEYQSASGGTTQLGALLRAQLNSNKSELEHHHHHH”: the “soluble on expression in E. coli” value was “soluble”. With “MTESNGNSEITTTEGNTGPVVESSLDPLAGRPEQSEDDIAKASDVEEYLRDVIDPELGINVVDLGLVYDIWMEGSIHAHVNMTLTSPACPLTDVIEDQAESAVVGNKVAETLTIHWVWMPPWGPHMITEDGREQLRALGFSV” the entry was “not soluble”; with “MTETKEERVHQVFEKIYKRYDVMNSVISFQRHKAWRKDTMKRMNVQEGQSALDVCCGTADWAIALGKAVGPTGHVEGLDFSENMLSIGKKKIADERLDHVFLRHGNAMELPYADDTFDFVTIGFGLRNVPDYMQVLREMARVTKPGGKVVCLETSQPTIPVFKQLYFFYFRHVMPLFGKMFAKSYDEYSWLQESTLSFPGRDRLAQMFKEVGLTDVQVKPYSGGAAAMHLGVKESYDEESRNVTCLEHHHHHH”, “not soluble”.

As to “MTEVIGIKFEENGAVEYVVPDKNYTKGDFVVVLEKKDKRLAQVVMENTVFPEVSLPVDLNRVEGLASKRDFARYDENLLKAEQSMGVVADLIAQNQLDMKVVDIVFPLNSSYVLISFVAEKRVDFRQLLEDLAAYFKTRIELRQISSREESKIYGGLGPCGRALCCSSFLGEFPPVSIKMAKNQSLSLNSGKMNGVCGRLMCCLSYEDDFYRDSKASYPDLGEEIETKEGRGQVIAIDVIAGTVKVMFEKGGAPLTYGVEEVQLNGKAAAALEHHHHHH”, the “soluble on expression in E. coli” value is on record as “soluble”. “MTEYGGGEVYLLDLDSVVDGSALRMISSGGLRGRVLIHSALVDYLYSEAKRGRSAGYAGLAELSRLMDAGVGDVEIVVVEDDARVQPRDEGELKSVLRRYALRVGATLVTSDPVQARAARALGVSVLFTGRSRTGRIRIEEFFDGRTMSVHLKEGVPPLAKVGKPGSWMFVSLSDKPLTRAEIEEIAREIIEASALEEEGFIEIDRSGSTIVQLKDYRIVITRPPLSDGWEVTAVKPVAKLRLEDYSLPEKLYNRLLERAEGILIAGAPGMGKTTFAQALATFYAEQGKVVKTIESPRDMRLPPNVTQYSKNYADLGELHDILLLSRPDYTVYDELRSDEDFQLYVDLRLAGIGMIGVVHATTPIDAVQRFLRRVELGMIPSIIDTVIFIDSGEVSKVYELSITVKLPTGLREAELSRPVVEVRDFITGELEYEIYTFGEQTMVVPVRERRGRGEAAILGAIRKLLPDAEVEVRDETLIVRLPPRSSRVTARRLKRAKKLAEKHGYDIRFMPL”: the “soluble on expression in E. coli” value is “soluble”.

For the sequence “MTFLFDCLILLNILIATCQAIGRTQSTAIEGVLLCEDGPAKGVLIKLYDHDTVSPDELMDSAKTDADGHFRLSGTADEISGIEPKINIYHDCDDGILPCQRRITIFVPSKYVSNTKQPSETFNLGRLQLAGKYAGESRDCLH”, the “soluble on expression in E. coli” value is reported as “soluble”. As for “MTGNEHSAIETYECDVLVAGSGASGMSAAITARYRGLDVLIVEKEPRFGGTTARSGGWLWIPGTSLAKAYGIEETPEQARTYLRHEAGNNFDGARIDAFLSAGPEAVDFFTTRTALRFDMPLVFPDYHAEAPGGAQGGRSMVTRPFDGRELGEQIRTLGMPLPELTVFGMMLGSGKEIIHFMRVTKSLTSAVYVAKRLSRHLMDVLHYGRGMTLTNGNALAGRLAKSALDLKIPMWLSSPVRELTVENGAVTGAIVSREGRKVRVRARQGVVLACGGFPHDVERRKKMFPHAPTGNEHFSPGPIGNTGDGLRLAESAGGHVEDRLPNAAAWVPVSLTTRKDGSKGVMPHFIDRAKPGVIAVMRDGRRFANEGNSYHDFVQAMVKAAKPGEEIAAYLVCDHKTLRKYGLGCVPPFPMPLGHHLSTGYLMRGDTLEALAAKAGIDATAFAETVRQFNTTAPLGHDAAFGKGSKAYNRYQGDALHGPNPCVAPIENGPFYAIKMVIGDLGTYAGIITDENARALDAEGRVIPGLYAAGNDMASIMGGNYPGAGITLGPALTFGYIAGRHLADSAAKRNAALEHHHHHH”, the “soluble on expression in E. coli” value was “not soluble”. As to “MTGPVTRADPTPGLRTGRRPGNPDTRSRILAAARKLFAQNGFDKTSVRSVATGAGVDSALIHHYFGTKRELFLASVDIPVDPTQVIAPVLDIPTGEVGSHLARAVFSVWESPHKPAVVAAFRSAMAGNEPNLIRTFLLEVVLRDLGPRVDEPPGTGMLRMQLVASQMAGVLVTRYILEFEPLASLPVDDLVAIVGPTLQRYLTGALP”, the “soluble on expression in E. coli” value is “not soluble”.

With “MTGTLLYTKNSALDRSEESGDLSPAKEFSIGPGFLKYVLRVRNEIAAAEYDMSVPTGFEADANCDYCFEQDTCMVVSGRLDQESKAGQLGEPLPEPERAYFERLYRAIEEERREVHAEYRKLWEQSAAERADDDRALVDLDPLGREPLDGGRWALSARRTSDAVSKIREGDRVLASDGHPTQGTAELATVRHLDDEIVVVADEPFELRRIDVYPSELGVDRQLTALHDAVLRGDPDRKDVLFGRREPSFVGDHRPIIDNNESQNEAVNRALAAEDFALIHGPPGTGKTYTLAQTVQALVARGDRVLLSAFTNRAVDNAIEALEAQGFTDVLRWGSESGVRDDMQSYRFDRTGDPRERAAALRDAQVVAATTAACGSRALKQQQFDVAVIDEAGQLTEPGTFLATNRADRFVLVGDHEQLPPVVRAENDLQTSLFEQLIDDYPDAAVMLDRQYRMSQRIQYFASREFYDGQLRPANAEVASQRLADLDGVDVSTLPSALRDAVSFVDPGGSADGNTNPTEADRVADIVSAYLDAGVDPDDIGVIAPFRAQVAELSRRIDEVTVDTVDRFQGSSKEVIIVSFVATGELSSPIFEDYRRVNVALTRAKKALVLVGDATALRSVPFYERMLEWAGLEHHHHHH”, the “soluble on expression in E. coli” value is on record as “not soluble”. With “MTHNIHDNISQWMKSNEETPIVMSSRIRLARNLENHVHPLMYATENDGFRVINEVQDALPNFELMRLDQMDQQSKMKMVAKHLISPELIKQPAAAVLVNDDESLSVMINEEDHIRIQAMGTDTTLQALYNQASSIDDELDRSLDISYDEQLGYLTTCPTNIGTGMRASVMLHLPGLSIMKRMTRIAQTINRFGYTIRGIYGEGSQVYGHTYQVSNQLTLGKSELEIIETLTEVVNQIIHEEKQIRQKLDTYNQLETQDRVFRSLGILQNCRMITMEEASYRLSEVKLGIDLNYIELQNFKFNELMVAIQSPFLLDEEDDKSVKEKRADILREHIK” the entry was “not soluble”. For “MTHSHRRHDISDRIWSLLEGHLPGREGAWGGVATDNRQFINAVFWIIRTGAPWRDLPPDYGGWSNTHRRFIRWRDKGIWEKLLEILIDDPDYEWLIMDASHCKVHPHASGARGGNQDMNRTKGGSTPRYIWPWMRMVCRSESLLHKVPLLIARRLAA”, the “soluble on expression in E. coli” value is “not soluble”.

With “MTIGQVNGRARIKSECGKDQKCMPLEDKWLLVPAFLKVRGLVKQHLVSFDHFVQEEIRSIMLSNQKITSDANPNFYLKYLDIRIGKPSSEEGLNMTHDKITPQECRLRDMTYSAPISVDIEYTRGNQRVFKKDLIIGRMPIMLRSSKCILRDLAEEELARVQECPYDPGGYFVVKGSEKVILIQEQLSKNRIMVGRNSSKELQCEVLSSTSERKSKTYVTMKKGKYSVRHNQLTDDVPVSIIFKAMGVESDFDIVSTIGHEEKYVSAFAQTLEESINAGVYTQQQALAYVTSKVKARKFTPFGSLPGTSVSVLTPPKEHEAVDFLSNSMITHIACPDGNFKMKAIYLGLMTRRLIQTELGENGLDDRDFYGNKRLELAGSLLSLLFEDVFKRFNSELKRIADNALMKTMAAPLDIVKHMRQDMITNTIVNAMSTGNWIIKRFRMERLGVTQVLSRLSYISALGMMTRINSTFEKTRKVSGPRSLQPSQWGMLCPSDTPEGEACGLVKNLALISHITTDSDEKPVLRLLLNSGVEDLHNVHFSHVNKPENTLIFLNGVLIGTAVDPERVVKAVRDLRRSGLLSEFVSVSRSLTNRSVFISSDGGRLCRPYIIVKNGTPMLTQAHVQELKEGKMIFEDFVDDGIVEYLDVNEMNDALIAVYGREIGPETTHLEIEPFTLLGVCAGLIPYPHHNQSPRNTYQCAMGKQAMGTIAYNQQKRIDSIMYLLCYPQRPLVKSKTIELTNFEKLPAGANGIIAVMSYSGYDIEDALVLNKASLDRGYGRCLVYKHVKGTAKKYPNQTFDRLLGPALDPNTRKPIFKHKNLDQEGIVFAGARIMPKQTIINKHMPVVSGESGPGASASANTIGIAGRQVDYKDVSITYKTPTPSYAERVLLTYNEDEAHLFKVLLRQTRRPELGDKFSSRHGQKGVCGLIAQQEDMPFNDLGMVPDMIMNPHGYPSRMTVGKLMELLSGKAGVVNGTYHYGTAFGGDQVKDVCEELAACGYNYMGKDMLTSGITGQPLSAYIYFGPIYYQKLKHMVLDKMHARARGPRAALTRQPTEGRSREGGLRLGEMERDCLIAYGASMLLIERLMVSSDEFKVDVCTGCGVIGSKGWCQKCRSSKSMANIKIPYACKLLFQELQSMNIVPRLDLARYTE”, the “soluble on expression in E. coli” value was “not soluble”. With “MTIKNVICDIDGVLMHDNVAVPGAAEFLHGIMDKGLPLVLLTNYPSQTGQDLANRFATAGVDVPDSVFYTSAMATADFLRRQEGKKAYVVGEGALIHELYKAGFTITDVNPDFVIVGETRSYNWDMMHKAAYFVANGARFIATNPDTHGRGFYPACGALCAGIEKISGRKPFYVGKPSPWIIRAALNKMQAHSEETVIVGDNLRTDILAGFQAGLETILVLSGVSSLDDIDSMPFRPSWIYPSVAEIDVI”, the “soluble on expression in E. coli” value was “soluble”. For the sequence “MTIKTGNIRTNSLAEIYRNSPVFQNLRNPDKYKGKCGVCEFRYVCGGSRSRAYAMTGGLYGKMAGDPLEHHHHHH”, the “soluble on expression in E. coli” value is “not soluble”. On to “MTITGIIAEFNPFHNGHKYLLDQAEGLKIVAMSGNFMQRGEPAIVDKWTRTQMALENGADLVVELPFLVSVQAADFFGQGAMDILDRLGIDSLVFGTEEVRDYQKIADLYTEKGAEMEKFVENLPDSLSYPQKTQAMWKEFAGLDFSGNTPNHVLALAYAKAVAGRNIKLHPIQRQGAGYHSVNKDVDFASATALRQHQKDQDFLERFMPSVALFEQASKVIWEDYFPLLRYQILSNPDLTTIYQVNQEMAVRIKEAIKTAQSVEELVELVTTKRYTKARVRRLLTYILMQARESDLPEAIHVLGFTEKGRQHLKSLKGQVSLVSRIGKEPWDAMTQKADQIYQLGKPSIAEQNFGRVPIRIETN”, for which the “soluble on expression in E. coli” value was “soluble”.

The values above are taken from the DeepSol protein solubility set.
